B1: NLV3 TCR beta chain (CDR3β only) (parent)
chain: ASSPTGGSPSPLH

Variants of: B1
Experiment: T-Switch: Jurkat TCRβ−/− cells expressing a CDR3 saturation-mutagenesis library, stained with two peptide-HLA-A*02:01 tetramers (original and novel peptide) plus anti-CD3, FACS-sorted into four gates, gDNA sequenced
Conditions: tetramers 1 µg/mL, 30 min on ice, SP, DP and SW gates expanded about 10 days between rounds ('two to three rounds of selection' in the Methods), unresolved parent, parent is a CDR3 fragment, scale: fold enrichment, numbering: sequential-on-construct, sequence starts at 1
[1] = with both tetramers (double-negative gate, binds neither): HLA-A*02:01 with … and with …, gate DN: OPPOSITE: higher = more of the variant in the gate that binds neither peptide = LESS binding (or no expression; inferred). Fold enrichment of the CDR3 variant in one FACS gate of a two-tetram
[2] = with both tetramers (double-positive gate): HLA-A*02:01 with … and with …, gate DP: higher = more of the variant in the gate that binds both peptides. Fold enrichment of the CDR3 variant in one FACS gate of a two-tetramer stain. SP/DP/SW gates were expanded and re-sorted bef

Variant	enrichment [1]	enrichment [2]
[…] (CDR3 as printed); A1Q derived by comparing it with the table's wild-type CDR3 ASSPTGGSPSPLH	0.998	0
[…] (CDR3 as printed); G6V derived by comparing it with the table's wild-type CDR3 ASSPTGGSPSPLH	1.33	0
[…] (CDR3 as printed); H13C derived by comparing it with the table's wild-type CDR3 ASSPTGGSPSPLH	0.646	0
[…] (CDR3 as printed); A1F derived by comparing it with the table's wild-type CDR3 ASSPTGGSPSPLH	0.897	0
[…] (CDR3 as printed); G7F derived by comparing it with the table's wild-type CDR3 ASSPTGGSPSPLH	1.02	0
[…] (CDR3 as printed); G6L derived by comparing it with the table's wild-type CDR3 ASSPTGGSPSPLH	0.967	0
[…] (CDR3 as printed); P4Q derived by comparing it with the table's wild-type CDR3 ASSPTGGSPSPLH	1.2	0
[…] (CDR3 as printed); A1H derived by comparing it with the table's wild-type CDR3 ASSPTGGSPSPLH	0.916	0
[…] (CDR3 as printed); L12A derived by comparing it with the table's wild-type CDR3 ASSPTGGSPSPLH	1.68	0
[…] (CDR3 as printed); A1I derived by comparing it with the table's wild-type CDR3 ASSPTGGSPSPLH	1.15	0
[…] (CDR3 as printed); G6N derived by comparing it with the table's wild-type CDR3 ASSPTGGSPSPLH	1.47	0
[…] (CDR3 as printed); P4I derived by comparing it with the table's wild-type CDR3 ASSPTGGSPSPLH	0.965	0
[…] (CDR3 as printed); H13A derived by comparing it with the table's wild-type CDR3 ASSPTGGSPSPLH	0.498	0
[…] (CDR3 as printed); H13D derived by comparing it with the table's wild-type CDR3 ASSPTGGSPSPLH	0.745	0
[…] (CDR3 as printed); G6I derived by comparing it with the table's wild-type CDR3 ASSPTGGSPSPLH	1.08	0
[…] (CDR3 as printed); A1C derived by comparing it with the table's wild-type CDR3 ASSPTGGSPSPLH	1.24	0
[…] (CDR3 as printed); G7C derived by comparing it with the table's wild-type CDR3 ASSPTGGSPSPLH	0.947	0
[…] (CDR3 as printed); H13Y derived by comparing it with the table's wild-type CDR3 ASSPTGGSPSPLH	0.87	0
[…] (CDR3 as printed); G7D derived by comparing it with the table's wild-type CDR3 ASSPTGGSPSPLH	1.18	0
[…] (CDR3 as printed); A1P derived by comparing it with the table's wild-type CDR3 ASSPTGGSPSPLH	1.02	0

Variant	enrichment [1]	enrichment [2]
[…] (CDR3 as printed); G7N derived by comparing it with the table's wild-type CDR3 ASSPTGGSPSPLH	0.87	0
[…] (CDR3 as printed); G7L derived by comparing it with the table's wild-type CDR3 ASSPTGGSPSPLH	1.32	0
[…] (CDR3 as printed); A1W derived by comparing it with the table's wild-type CDR3 ASSPTGGSPSPLH	0.805	0
[…] (CDR3 as printed); H13T derived by comparing it with the table's wild-type CDR3 ASSPTGGSPSPLH	0.524	0
[…] (CDR3 as printed); P4K derived by comparing it with the table's wild-type CDR3 ASSPTGGSPSPLH	0.891	0
[…] (CDR3 as printed); G6Y derived by comparing it with the table's wild-type CDR3 ASSPTGGSPSPLH	0.661	0
[…] (CDR3 as printed); G7S derived by comparing it with the table's wild-type CDR3 ASSPTGGSPSPLH	1.32	0
[…] (CDR3 as printed); H13N derived by comparing it with the table's wild-type CDR3 ASSPTGGSPSPLH	0.56	0
[…] (CDR3 as printed); G6S derived by comparing it with the table's wild-type CDR3 ASSPTGGSPSPLH	0.376	0
[…] (CDR3 as printed); G6F derived by comparing it with the table's wild-type CDR3 ASSPTGGSPSPLH	1.27	0
[…] (CDR3 as printed); L12D derived by comparing it with the table's wild-type CDR3 ASSPTGGSPSPLH	0.327	0
[…] (CDR3 as printed); P4F derived by comparing it with the table's wild-type CDR3 ASSPTGGSPSPLH	1.02	0
[…] (CDR3 as printed); G7A derived by comparing it with the table's wild-type CDR3 ASSPTGGSPSPLH	0.658	0
[…] (CDR3 as printed); G7E derived by comparing it with the table's wild-type CDR3 ASSPTGGSPSPLH	1.08	0
[…] (CDR3 as printed); G7V derived by comparing it with the table's wild-type CDR3 ASSPTGGSPSPLH	1.02	0
[…] (CDR3 as printed); G6M derived by comparing it with the table's wild-type CDR3 ASSPTGGSPSPLH	0.906	0
[…] (CDR3 as printed); A1T derived by comparing it with the table's wild-type CDR3 ASSPTGGSPSPLH	0.774	0
[…] (CDR3 as printed); H13K derived by comparing it with the table's wild-type CDR3 ASSPTGGSPSPLH	0.708	0
[…] (CDR3 as printed); A1D derived by comparing it with the table's wild-type CDR3 ASSPTGGSPSPLH	0.881	0
[…] (CDR3 as printed); L12K derived by comparing it with the table's wild-type CDR3 ASSPTGGSPSPLH	0.756	0

Variant	enrichment [1]	enrichment [2]
[…] (CDR3 as printed); P4A derived by comparing it with the table's wild-type CDR3 ASSPTGGSPSPLH	0.738	0
[…] (CDR3 as printed); G6T derived by comparing it with the table's wild-type CDR3 ASSPTGGSPSPLH	1.01	0
[…] (CDR3 as printed); P4D derived by comparing it with the table's wild-type CDR3 ASSPTGGSPSPLH	0.917	0
[…] (CDR3 as printed); G6H derived by comparing it with the table's wild-type CDR3 ASSPTGGSPSPLH	1.05	0
[…] (CDR3 as printed); H13E derived by comparing it with the table's wild-type CDR3 ASSPTGGSPSPLH	0.868	0
[…] (CDR3 as printed); P4N derived by comparing it with the table's wild-type CDR3 ASSPTGGSPSPLH	1.17	0
[…] (CDR3 as printed); P4S derived by comparing it with the table's wild-type CDR3 ASSPTGGSPSPLH	0.973	0
[…] (CDR3 as printed); P4E derived by comparing it with the table's wild-type CDR3 ASSPTGGSPSPLH	0.97	0
[…] (CDR3 as printed); G6K derived by comparing it with the table's wild-type CDR3 ASSPTGGSPSPLH	1.4	0
[…] (CDR3 as printed); P4W derived by comparing it with the table's wild-type CDR3 ASSPTGGSPSPLH	1.23	0
[…] (CDR3 as printed); H13F derived by comparing it with the table's wild-type CDR3 ASSPTGGSPSPLH	0.541	0
[…] (CDR3 as printed); H13S derived by comparing it with the table's wild-type CDR3 ASSPTGGSPSPLH	0.978	0
[…] (CDR3 as printed); P4R derived by comparing it with the table's wild-type CDR3 ASSPTGGSPSPLH	0.618	0
[…] (CDR3 as printed); P9A derived by comparing it with the table's wild-type CDR3 ASSPTGGSPSPLH	0.394	114
[…] (CDR3 as printed); L12N derived by comparing it with the table's wild-type CDR3 ASSPTGGSPSPLH	0.99	0
[…] (CDR3 as printed); A1L derived by comparing it with the table's wild-type CDR3 ASSPTGGSPSPLH	0.861	0
[…] (CDR3 as printed); L12I derived by comparing it with the table's wild-type CDR3 ASSPTGGSPSPLH	0.883	0
[…] (CDR3 as printed); A1R derived by comparing it with the table's wild-type CDR3 ASSPTGGSPSPLH	0.65	0

Source: article PMC13397619
